Assay results: the supplement of paper PMC10126150
± gives the standard deviation of the averaged measurements.

System: ATP
Test: switch fluorescence ratio, 500 uM ATP over buffer (Cy3 cluster intensity, sum of 5 cycles each) (fold (ratio)); higher = stronger signal-on switching upon ATP binding; sequences stand for … in TCGTCGGCAGCGTCAGATGTGTATAAGAGACAGTTTTTTTTTTTTTTTTTTTTTTTTT…TC
Conditions: aptamer strand: ATP DNA aptamer (quencher-CACCTGGGGGAGTATTGCGGAGGAAGG + anchor), 100 nM annealed; ATP concentration: 500 uM
In short: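 Switching-strand clusters labelled with Cy3 on a modified Illumina MiSeq flow-cell were annealed to 100 nM quencher-labelled ATP aptamer, imaged in selection buffer, and re-imaged after 15 min with 500 uM ATP at 22 °C. This was done over five cycles with NaOH stripping and re-annealing in between. The fluorescence ratio is summed target-cycle over summed buffer-cycle Cy3 intensity per cluster, averaged per switch-domain sequence, excluding clusters outside 100-1000 RFU.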
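Also: ATP exposure 15 min at 22 °C before imaging.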

Sequence	switch fluorescence ratio
TTTGCGTGCA	0.975 ± 0.011
TTTGCGTGTT	1.019 ± 0.0086
TTTGCTAAA	1.01 ± 0.046
TTTGCTCACG	1.01 ± 0.029
TTTGCTCTTA	1 ± 0.056
TTTGCTGCAG	1.003 ± 0.003
TTTGCTGGTG	1.1 ± 0.026
TTTGCTTA	0.995 ± 0.012
TTTGCTTATG	0.9924 ± 0.0045
TTTGGAAAGC	1.04 ± 0.019
TTTGGAAGTT	0.9817 ± 0.0035
TTTGGAATAC	2.92 ± 1
TTTGGAATCA	1.008 ± 0.0098
TTTGGAATGG	0.991 ± 0.054
TTTGGACGGC	1.04 ± 0.065
TTTGGACGGG	0.995 ± 0.033
TTTGGAGATA	1.03 ± 0.032
TTTGGAGCAG	1.14 ± 0.13
TTTGGAGGGT	1.02 ± 0.064
TTTGGAGGTA	1.01 ± 0.059
TTTGGAGTGC	1 ± 0.05
TTTGGAGTT	1 ± 0.02

Sequence	switch fluorescence ratio
TTTGGATATA	0.9726 ± 0.0041
TTTGGATATG	0.992 ± 0.037
TTTGGATGAC	1.01 ± 0.063
TTTGGATGGC	1.02 ± 0.057
TTTGGATGTT	1 ± 0.011
TTTGGATTAG	0.9746 ± 0.0037
TTTGGATTTG	1.03 ± 0.027
TTTGGCACAC	1.046 ± 0.0048
TTTGGCAGGG	0.996 ± 0.024
TTTGGCATCA	1.04 ± 0.013
TTTGGCCGGT	1.04 ± 0.056
TTTGGCGAAA	1.01 ± 0.019
TTTGGCGGAA	1.04 ± 0.011
TTTGGCGTTT	1.01 ± 0.024
TTTGGCTGGA	1.04 ± 0.072
TTTGGCTGTG	0.973 ± 0.029
TTTGGGAAAG	0.978 ± 0.032
TTTGGGAATG	1.06 ± 0.13
TTTGGGACCT	1 ± 0.048
TTTGGGACGG	0.999 ± 0.065
TTTGGGAGTT	1.05 ± 0.19
TTTGGGATAC	1.24 ± 0.28

Sequence	switch fluorescence ratio
TTTGGGATGG	0.983 ± 0.046
TTTGGGCCGT	0.971 ± 0.043
TTTGGGGATT	1.01 ± 0.036
TTTGGGGCGA	1.02 ± 0.031
TTTGGGGCGC	1.01 ± 0.048
TTTGGGGCGG	0.989 ± 0.038
TTTGGGGGCG	0.983 ± 0.081
TTTGGGGTTG	0.999 ± 0.037
TTTGGGTGGG	0.985 ± 0.041
TTTGGGTGTG	0.983 ± 0.016
TTTGGGTTAT	1.08 ± 0.21
TTTGGGTTTC	0.977 ± 0.017
TTTGGTAATT	1.03 ± 0.034
TTTGGTAGTT	0.987 ± 0.015
TTTGGTCGGG	1.01 ± 0.03
TTTGGTGAAC	1 ± 0.022
TTTGGTGGAA	1.01 ± 0.044
TTTGGTGTCC	0.984 ± 0.017
TTTGGTTATA	1 ± 0.012
TTTGGTTCCT	1.014 ± 0.0091
TTTGGTTCTG	1.01 ± 0.012
TTTGGTTGGA	0.992 ± 0.038

Sequence	switch fluorescence ratio
TTTGTAAAGA	1 ± 0.018
TTTGTAAGGT	1.032 ± 0.0089
TTTGTAAGTA	1 ± 0.013
TTTGTACGCA	1.71 ± 1
TTTGTACTGG	1.01 ± 0.041
TTTGTACTTT	1.01 ± 0.041
TTTGTAGGGA	1.02 ± 0.028
TTTGTATAGT	1.003 ± 0.0019
TTTGTATGG	0.9819 ± 0.0042
TTTGTATGGG	0.972 ± 0.018
TTTGTCAAAC	1.11 ± 0.13
TTTGTCATGG	1.04 ± 0.037
TTTGTCGCAT	1.14 ± 0.067
TTTGTCGCGG	1.02 ± 0.025
TTTGTCTGTG	0.983 ± 0.03
TTTGTGAATT	0.972 ± 0.012
TTTGTGATCA	0.998 ± 0.032
TTTGTGCACC	0.9941 ± 0.005
TTTGTGCGTC	0.977 ± 0.055
